This note sets out measurements from US20210054016.

Data set [1] deals with T1, H3C2 RNA capping enzyme (Faustovirus D5b) (Faustovirus D5b).
T1 sequence: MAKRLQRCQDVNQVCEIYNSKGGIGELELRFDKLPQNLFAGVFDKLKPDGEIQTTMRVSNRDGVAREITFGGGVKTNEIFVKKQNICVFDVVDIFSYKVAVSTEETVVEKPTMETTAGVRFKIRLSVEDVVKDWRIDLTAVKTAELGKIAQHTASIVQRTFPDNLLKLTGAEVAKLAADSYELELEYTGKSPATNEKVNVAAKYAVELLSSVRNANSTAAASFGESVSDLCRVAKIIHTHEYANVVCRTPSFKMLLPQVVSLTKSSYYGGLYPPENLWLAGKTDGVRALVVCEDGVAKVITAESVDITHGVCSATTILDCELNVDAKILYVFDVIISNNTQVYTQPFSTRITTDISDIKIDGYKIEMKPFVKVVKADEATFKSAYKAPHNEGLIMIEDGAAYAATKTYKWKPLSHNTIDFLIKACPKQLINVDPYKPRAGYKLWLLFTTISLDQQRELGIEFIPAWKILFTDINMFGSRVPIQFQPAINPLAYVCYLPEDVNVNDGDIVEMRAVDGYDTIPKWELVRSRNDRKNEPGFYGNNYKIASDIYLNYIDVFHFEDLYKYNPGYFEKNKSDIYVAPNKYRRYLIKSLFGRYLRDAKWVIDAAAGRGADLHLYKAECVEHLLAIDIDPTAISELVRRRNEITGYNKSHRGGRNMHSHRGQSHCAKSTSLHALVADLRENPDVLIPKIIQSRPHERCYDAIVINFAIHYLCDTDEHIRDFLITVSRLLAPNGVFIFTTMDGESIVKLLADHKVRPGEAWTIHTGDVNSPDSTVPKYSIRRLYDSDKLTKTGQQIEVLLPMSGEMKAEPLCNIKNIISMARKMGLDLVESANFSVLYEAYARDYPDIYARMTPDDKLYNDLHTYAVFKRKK
Particulars: pseudouridine in place of U; 5' triphosphate; 37 C, 100 nM enzyme; larger than U counterpart.

The target in data set [2] is Vaccinia capping enzyme (VCE) (Vaccinia virus) (UniProt P04298+P04318). Particulars: pseudouridine in place of U; 5' triphosphate; 37 C, 100 nM enzyme; larger than U counterpart.

In the case of cluc/A120 transcript with pseudouridine, the activity turned out to be 100 % capped in data set [1] and 68.4 % capped in data set [2].
